According to patent US20250136702A1, “HUMAN LIFR ANTIGEN BINDING PROTEIN, PREPARATION METHOD THEREFOR, AND APPLICATION THEREOF” (NONA BIOSCIENCES (SUZHOU) CO., LTD., priority 2020, published 2025):

What was measured:
[1] = target: human LIFR expressed on the surface of 293T cells (human) (UniProt P42702); assay: flow cytometry on HEK293T-huLIFR cells, median fluorescence, span of the fitted curve
[2] = target: human LIFR/gp130 heterodimer expressed on the surface of 293T cells (human) (UniProt P42702); assay: flow cytometry on HEK293T-huLIFR/gp130 cells, median fluorescence, span of the fitted curve
human LIFR/gp130 heterodimer expressed on the surface of 293T cells (human), sequence (P42702 45-1097, chain 1 of 2): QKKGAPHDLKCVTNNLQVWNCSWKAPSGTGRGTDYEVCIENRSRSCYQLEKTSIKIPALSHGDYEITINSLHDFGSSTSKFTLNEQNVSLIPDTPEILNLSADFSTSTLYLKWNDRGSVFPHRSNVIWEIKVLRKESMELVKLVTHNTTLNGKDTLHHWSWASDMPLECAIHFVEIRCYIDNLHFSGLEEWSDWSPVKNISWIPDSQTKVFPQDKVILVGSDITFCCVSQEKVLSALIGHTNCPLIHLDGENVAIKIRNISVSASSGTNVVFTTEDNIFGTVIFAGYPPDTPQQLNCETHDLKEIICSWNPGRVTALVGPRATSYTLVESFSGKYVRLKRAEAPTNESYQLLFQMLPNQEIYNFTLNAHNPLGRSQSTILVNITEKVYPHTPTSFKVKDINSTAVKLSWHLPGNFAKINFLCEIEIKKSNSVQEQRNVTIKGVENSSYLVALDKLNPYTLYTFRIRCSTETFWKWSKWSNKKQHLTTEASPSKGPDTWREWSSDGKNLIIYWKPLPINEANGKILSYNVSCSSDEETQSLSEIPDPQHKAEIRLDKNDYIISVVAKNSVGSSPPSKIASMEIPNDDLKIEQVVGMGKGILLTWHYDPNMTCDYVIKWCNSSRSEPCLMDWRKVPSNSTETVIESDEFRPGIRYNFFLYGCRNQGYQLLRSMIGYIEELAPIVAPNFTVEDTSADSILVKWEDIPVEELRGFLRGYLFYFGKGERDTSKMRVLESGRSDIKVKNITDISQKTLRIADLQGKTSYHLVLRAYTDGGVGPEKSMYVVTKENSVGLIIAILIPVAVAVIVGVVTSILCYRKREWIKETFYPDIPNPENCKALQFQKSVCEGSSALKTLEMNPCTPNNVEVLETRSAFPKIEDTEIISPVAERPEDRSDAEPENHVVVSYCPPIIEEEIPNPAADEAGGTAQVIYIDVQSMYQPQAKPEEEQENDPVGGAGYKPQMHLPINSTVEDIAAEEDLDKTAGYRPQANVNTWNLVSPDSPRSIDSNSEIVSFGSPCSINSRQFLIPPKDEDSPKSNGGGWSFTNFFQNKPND
human LIFR/gp130 heterodimer expressed on the surface of 293T cells (human), sequence (P40189 23-918, chain 2 of 2, further chain): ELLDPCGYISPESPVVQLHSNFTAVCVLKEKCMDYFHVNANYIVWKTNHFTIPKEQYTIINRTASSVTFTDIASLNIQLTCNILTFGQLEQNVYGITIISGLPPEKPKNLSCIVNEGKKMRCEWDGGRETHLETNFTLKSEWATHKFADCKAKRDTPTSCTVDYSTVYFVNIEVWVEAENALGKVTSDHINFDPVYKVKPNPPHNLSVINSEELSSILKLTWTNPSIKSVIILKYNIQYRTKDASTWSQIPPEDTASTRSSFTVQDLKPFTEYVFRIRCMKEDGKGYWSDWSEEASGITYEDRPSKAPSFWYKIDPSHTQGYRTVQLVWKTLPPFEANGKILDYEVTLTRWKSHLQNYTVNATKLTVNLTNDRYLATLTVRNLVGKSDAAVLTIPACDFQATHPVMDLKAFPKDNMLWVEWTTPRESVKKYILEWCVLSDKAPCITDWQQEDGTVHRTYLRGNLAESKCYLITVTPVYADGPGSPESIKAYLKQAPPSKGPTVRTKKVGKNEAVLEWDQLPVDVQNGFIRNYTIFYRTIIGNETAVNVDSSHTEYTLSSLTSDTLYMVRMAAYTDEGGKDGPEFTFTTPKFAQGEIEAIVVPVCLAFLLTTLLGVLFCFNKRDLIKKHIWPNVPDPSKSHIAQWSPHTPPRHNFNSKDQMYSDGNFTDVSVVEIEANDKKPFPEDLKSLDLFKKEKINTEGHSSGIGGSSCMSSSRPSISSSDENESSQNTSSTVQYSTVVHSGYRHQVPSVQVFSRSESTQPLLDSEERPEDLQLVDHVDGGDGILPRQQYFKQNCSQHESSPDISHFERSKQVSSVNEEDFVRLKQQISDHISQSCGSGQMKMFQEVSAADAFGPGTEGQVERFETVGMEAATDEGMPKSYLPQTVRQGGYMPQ

human LIFR expressed on the surface of 293T cells (human), sequence (P42702 45-1097): as the sequence (P42702 45-1097, chain 1 of 2) above

Span [1]: 12
Span [2]: 90.1
Substance: hIgG1 (antibody)
